From patent publication US20180094062A1 (Hoffmann-La Roche, published 2018)
Where a chain is given by its changes, count along the chain named.

T1: recombinant Thermus thermophilus SlyD FKBP-Her3 (TtSlyD-FKBP-Her3)
T1 construct: expressed in E. coli, the N-terminal methionine can be present or not; also called thermo SlyD-Her3; T.T.SlyD-Her3
T1 chain: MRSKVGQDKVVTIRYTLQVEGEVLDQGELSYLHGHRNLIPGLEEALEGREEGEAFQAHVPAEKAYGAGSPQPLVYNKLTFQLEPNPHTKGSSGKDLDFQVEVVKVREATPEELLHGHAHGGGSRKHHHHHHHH

T2: human recombinant HER4 Extracellular Domain (HER4 ECD) (human, UniProt Q15303 26-651)
T2 sequence: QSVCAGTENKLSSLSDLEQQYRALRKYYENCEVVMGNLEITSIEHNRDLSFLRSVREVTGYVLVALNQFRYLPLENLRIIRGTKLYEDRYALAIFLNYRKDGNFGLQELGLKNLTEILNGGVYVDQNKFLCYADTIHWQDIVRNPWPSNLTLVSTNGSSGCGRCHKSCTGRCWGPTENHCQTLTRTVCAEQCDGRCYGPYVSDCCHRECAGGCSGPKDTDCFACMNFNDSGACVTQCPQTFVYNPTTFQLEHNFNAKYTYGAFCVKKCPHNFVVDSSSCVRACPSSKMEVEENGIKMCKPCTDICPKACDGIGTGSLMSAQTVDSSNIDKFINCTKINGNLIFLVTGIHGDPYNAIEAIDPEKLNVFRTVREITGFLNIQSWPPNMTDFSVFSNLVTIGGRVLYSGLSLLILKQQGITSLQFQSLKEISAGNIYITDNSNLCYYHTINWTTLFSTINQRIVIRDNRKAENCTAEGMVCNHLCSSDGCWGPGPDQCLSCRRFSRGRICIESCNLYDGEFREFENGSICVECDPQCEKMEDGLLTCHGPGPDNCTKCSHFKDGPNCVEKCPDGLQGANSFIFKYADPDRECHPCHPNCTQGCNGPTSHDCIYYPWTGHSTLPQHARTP

T3: TgSlyDΔIF
T3 construct: negative control scaffold without insert (Thermococcus gammatolerans SlyD); also called TgSlyDAIF
T3 chain: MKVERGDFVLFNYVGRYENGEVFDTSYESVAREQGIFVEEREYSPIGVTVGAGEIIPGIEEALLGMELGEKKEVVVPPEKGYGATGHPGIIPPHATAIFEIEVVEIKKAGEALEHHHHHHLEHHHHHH

B1: anti-HER3 antibody M-46-01 (antibody, V domains shown)
VH: QIQLQQSGPQLVRPGASVKISCKASGYSFTSYWMHWVKQRPGRGLEWIGMIDPSDGVTRLNQKFKDKATLTVDNSSSTAYMQLSSPTSEDSAVHYCARVDVLYWYFDVWGAGTTVTVSS
VL: DIVLTQSPASLAVSLGQRATISCRASKSISISGYSYMHWYQQKAGQPPKLLIYLTSNLESGVPARFSGSGSGTDFTLNIHPVEEEDAATYYCHHSRELPFTFGSGTKLEIK
notes: mouse hybridoma clone
B2: anti-HER3 antibody M-08-11 (antibody, V domains shown)
VH: QAYLQQSGAELMRPGASVRMSCQASGYTFTSYTIHWLKQTPRQGLEWIGAIYPRNGDFSYNQKFKDKASLTVDTSSSTAYMHLSSLTSEDSAVYFCARTINYGDWFAYWGQGTLVTVSA
VL: DIQMIQSPASLFVSEGETVIITCRASENIYSNLAWYHQKKGKSPQVLVYAAIKLADGVPLRFSGSGSGTQFSLKINSLQSEDFGSYYCQHFWGPPYTFGSGTNLEIK
notes: mouse monoclonal antibody from hybridoma, tested as hybridoma supernatant or as antibody; also called M-011
B3: anti-HER3 antibody M-43-01 (antibody, V domains shown)
VH: EVQLQQSGTVLARPGASVKMSCKASDYTFSNYWVHWVKQRPGQGLEWIGAIYPGNGDSTYYQKFKGKATLTAVTSTSTAYMDLSSLTNGDSAVYFCTRSGVGYNYYFDYWGQGTTLTVSS
VL: DIQMTQSPASLSASVGETVTITCRASENIYSNLAWYQQKQGKSPQLLVYIATNLADGVPSRFSGSGSGTQFSLKINSLQPEDLGSYYCQHFYGTPFTFGTGTKLEIE
notes: mouse hybridoma clone
B4: anti-HER3 antibody M-17-02 (antibody, V domains shown)
VH: EVQLQQSGTVLARPGASVKMSCKASGYSFTSYWIHWVKQRPGQGLEWIGAIYPGNSDTTYNQKFKGKAKLTAVTSASTAYMELSSLTNEDSAVYYCARTGVWTSYYFDYWGQGTTLTVSS
VL: B3 VL with I50A, K74R, L83F, E107K
notes: mouse hybridoma clone

biological target: T4, HER3 ECD-HRG complex (Heregulin-activated Her-3 ECD) (human, UniProt P21860 20-643); assay: SPR, Interaction Map (TraceDrawer), two-state-kinetic no. 1, 25 C
T4 construct: receptor-ligand complex made by preincubating HER3 ECD with a five-fold molar excess of Heregulin; also called Heregulin/Her-3 ECD; Heregulin-complexed Her-3 ECD
Description: A Biacore T200 instrument (GE Healthcare) was mounted with a CM5 series sensor. The sensor was normalized in HBS-ET buffer (10 mM HEPES pH 7.4, 150 mM NaCl, 3 mM EDTA, 0.05% w/v Tween 20) according to the manufacturer's instructions. The sample buffer was the system buffer supplemented with 1 mg/ml CMD (Carboxymethyldextran, Sigma #86524). The system operated at 25° C. 6500 RU RAM-Fcγ (relative units of Fcγ-fragment RamlgG, GE Healthcare) were immobilized according to the manufacturer's instructions using amine coupling EDC/NHS chemistry on all four flow cells. The sensor was deactivated using 1M ethanolamine. […] Concentration dependent kinetics were measured. […] All analytes were injected for 5 min association time and 10 min dissociation time at 100 μl/min flow rate. The sensor capture system was regenerated by a 3 min injection at 10 μl/min of 10 mM glycine pH 1.7. Where possible kinetic data was evaluated using the Biacore T200 evaluation software.

Kd	Weight (contribution to the overall interaction)	koff	kon	Binder
356 nM	77%	0.232 s⁻¹	652000 M⁻¹ s⁻¹	B1
419 nM	79%	0.0799 s⁻¹	191000 M⁻¹ s⁻¹	B2
261 nM	69%	0.141 s⁻¹	541000 M⁻¹ s⁻¹	B3

Biological target: T1, recombinant Thermus thermophilus SlyD …
Assay: SPR Biacore 4000 kinetic screening, antibody captured, analyte 150 nM, 25 C
Description: (§1) In all assay the test antibodies were captured. The system was under the control of the software version V1.1. The instrument buffer was HBS-EP (10 mM HEPES (pH 7.4), 150 mM NaCl, 1 mM EDTA, 0.05% (w/v) P20). The system operated at 25° C. 30 μg/ml Rabbit polyclonal antibody (RAM IgG, (Rabbit anti Mouse IgG with Fc gamma specificity) GE Healthcare) in 10 mM sodium acetate buffer (pH 4.5) was immobilized using EDC/NHS chemistry according to the manufacturer's instructions on the spots 1, 2, 4 and 5 in the flow cells 1, 2, 3 and 4. The sensor was saturated using 1M ethanolamine. In each flow cell, referenced signals were calculated using spots 1-2 and spots 5-4, spot 3 served as a blanc control. […] Prior to their application the hybridoma culture supernatants were diluted 1:5 in instrument buffer. The diluted mixtures were injected at a flow rate of 30 μl/min for 2 min. The antibody capture level (CL) in response units was monitored. Immediately thereafter the respective antigen was injected at a flow rate of 30 μl/min for 3 min association time. Thereafter, the antibody-antigen complex dissociation signal was recorded for 5 min. The sensor was regenerated by injecting a 10 mM glycine-HCl solution (pH 1.7) for 2 min at a flow rate of 30 μl/min. The recorded signal shortly before the end of the injection of the antigen was denoted as binding late (BL) in response units. The recorded signal shortly before the end of the recording of the dissociation is denoted as stability late (SL) in response units. The dissociation rate constants were determined calculated The antibody-antigen complex stability in minutes was calculated with the following formula: […]. The Molar Ratio was calculated with the formula: MW (antibody)/MW (antigen) *BL (antigen)/CL (antibody).

BL (binding late)	MR (Molar Ratio)	SL (stability late)	koff	t/2 diss	Binder
80 RU	1.8	71 RU	0.00028 s⁻¹	41 min	B1
46 RU	1.3	45 RU	0.000102 s⁻¹	114 min	B2
52 RU	1.7	50 RU	0.0002 s⁻¹	59 min	B4
53 RU	1.7	51 RU	0.00016 s⁻¹	73 min	B3

biological target: T5, human recombinant HER3 Extracellular Domain (HER3 ECD) (human, UniProt P21860 20-643); assay: as above
T5 construct: 68 kDa; also called human-Her3-ECD
Description: as §1

BL (binding late)	MR (Molar Ratio)	SL (stability late)	koff	t/2 diss	Binder
21 RU	0.2	17 RU	0.00041 s⁻¹	28 min	B1
61 RU	0.4	62 RU	4.11e-05 s⁻¹	281 min	B2
10 RU	0.1	10 RU			B4
9 RU	0.1	8 RU	0.00066 s⁻¹	18 min	B3

biological target: T2, human recombinant HER4 Extracellular …; assay: ELISA, antigen coated, hybridoma supernatant
Description: (§2) For the ELISA screening an antigen down format was used. […] Hybridoma Supernatant was added to the plates and incubated for 1 h at room temperature. Bound antibody was detected with a HRP-labeled F(ab′)₂ goat anti-mouse Fcγ (Dianova) and ABTS (Roche) was used as a HRP-substrate.
(§3) As negative controls the scaffold proteins TtSlyDcas and TgSlyDΔIF were used.

OD 405 nm	binding result	Binder
0.032 OD	no binding	B1
0.024 OD	no binding	B2
0.025 OD	no binding	B4
0.04 OD	no binding	B3

Biological target: T3, TgSlyDΔIF
Assay: ELISA, antigen coated, hybridoma supernatant
Description: as §2, §3

OD 405 nm	Binder
0.035 OD	B2
0.026 OD	B4
0.038 OD	B3
